# Laboratory results taken from publication PMC3365590 (Journal of Molecular Biology, 2010).
# B1: ROK fructokinase YdhR from Bacillus subtilis, native protein (size exclusion chromatography) (enzyme, B. subtilis, UniProt O05510 1-299, looked up)
# chain: MLGGIEAGGTKFVCAVGREDGTIIDRIEFPTKMPDETIEKVIQYFSQFSLQAIGIGSFGPVDNDKTSQTYGTITATPKAGWRHYPFLQTVKNEMKIPVGFSTDVNAAALGEFLFGEAKGLDSCLYITIGTGIGAGAIVEGRLLQGLSHPEMGHIYIRRHPDDVYQGKCPYHGDCFEGLASGPAIEARWGKKAADLSDIAQVWELEGYYIAQALAQYILILAPKKIILGGGVMQQKQVFSYIYQYVPKIMNSYLDFSELSDDISDYIVPPRLGSNAGIIGTLVLAHQALQAEAASGEVRS
# Molecular target: the molecule itself
# Test: SEC
protein,measurement,value
B1,stoichiometry N,2
